US20190241662A1 (ADAGENE, published 2019)

What was measured:
[1] = target: mouse CTLA4 (SPR analyte, construct not stated) (mouse, UniProt P09793 36-162, limits assumed); assay: SPR (Biacore T200), IgG captured by anti-human Fc
Excerpt: (§1) Binding affinity and kinetics of antibodies against human, monkey and mouse CTLA4 were examined (Table 4) by surface plasmon resonance (SPR) analysis using a Biacore™ T200 instrument (Biacore AB, Uppsala, Sweden) according to the manufacturer's guidelines. Anti-Human IgG (Fc) antibody from Human Antibody Capture Kit (GE BR-1008-39) was immobilized on CM5 chips by coupling of its amine groups onto carboxylated surfaces of sensor chips according to the instructions of an Amine Coupling kit (GE Biacore #BR-1000-50). […] The association and dissociation curves were fitted to a 1:1 Langmuir binding model using Biacore T200 Evaluation Software (Biacore AB) according to the manufacturer's guidelines.

[2] = target: T1, recombinant human CTLA4 protein (construct not stated) (human, UniProt P16410 36-162, limits assumed); assay: SPR (Biacore T200), IgG captured by anti-human Fc
T1 construct: also called biotinylated human CTLA4; human recombinant CTLA4 proteins
T1 sequence (looked up): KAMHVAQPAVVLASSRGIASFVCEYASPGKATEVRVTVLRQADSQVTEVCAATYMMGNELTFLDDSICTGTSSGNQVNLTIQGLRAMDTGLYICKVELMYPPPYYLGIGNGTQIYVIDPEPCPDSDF
Excerpt: as §1

[3] = target: T2, monkey CTLA4 (SPR analyte, construct not stated) (monkey, UniProt G7PL88 36-161); assay: SPR (Biacore T200), IgG captured by anti-human Fc
T2 sequence: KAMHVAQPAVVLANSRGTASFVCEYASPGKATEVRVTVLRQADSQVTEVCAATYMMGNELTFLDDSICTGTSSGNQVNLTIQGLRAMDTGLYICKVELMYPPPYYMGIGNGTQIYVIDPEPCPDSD
Excerpt: as §1

[4] = target: T3, recombinant human CTLA4-Fc (human, UniProt P16410 36-162); assay: ELISA, coated human CTLA4-Fc (as in Example 8)
T3 construct: also called human CTLA4 fused with human FC fragment; CTLA4-Fc (Sino Biological, 11159-H03H)
T3 sequence (looked up): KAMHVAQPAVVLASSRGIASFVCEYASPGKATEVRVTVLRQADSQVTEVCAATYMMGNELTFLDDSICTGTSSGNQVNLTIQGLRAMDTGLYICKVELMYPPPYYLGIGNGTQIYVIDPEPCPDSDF
Experimental: Plates were blocked with PBS supplemented with 3% non-fat milk at 37° C. for 1 hour. After washing, 100 μL of 3-fold serial dilutions of antibodies were added to each well. After incubation at 37° C. for 1 hour, plates were washed four times, and 100 μL HRP conjugated anti-human IgG (Fab specific) (1:6000 dilution) was added to each well. Plates were incubated at 37° C. for 1 hour, washed four times, and then 50 μL TMB substrate solution was added to each well, and the plate was incubated at room temperature. […] The EC₅₀ was evaluated by fitting the ELISA data using the asymmetrical sigmoidal (five-parameter logistic equation) model of GraphPad Prism 6 software.

[5] = target: T4, full-length human CTLA4 expressed on cells (human, UniProt P16410 36-223); assay: flow cytometry, transfected HEK293F cells, antibody concentration not printed [Cont.]
T4 construct: whole, on cells; also called HEK293F/hCTLA-4 cells; HEK293F/hCTLA4 cells
T4 sequence (looked up): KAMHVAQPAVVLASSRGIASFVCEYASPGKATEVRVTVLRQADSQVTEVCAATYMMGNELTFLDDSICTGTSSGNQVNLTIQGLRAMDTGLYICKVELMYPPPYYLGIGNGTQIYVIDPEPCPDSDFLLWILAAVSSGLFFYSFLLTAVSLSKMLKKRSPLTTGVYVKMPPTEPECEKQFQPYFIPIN
Experimental: (§2) The affinities of the antibodies were also assessed against human and mouse CTLA4 transiently expressed on the surface of HEK293F cells (FIG. 2). Briefly, HEK293F cells were transfected with a plasmid expressing full-length human, monkey or mouse CTLA4 from a bicistronic IRES vector also encoding EGFP, and EGFP expression was used to identify the transfected cells. After 48 hours, the mammalian cell suspension (2×10⁵/well) was transferred to an Eppendorf tube, centrifuged, the supernatant was discarded, the cells were resuspended with 1 mL PBSA (to a density is 4×10⁶ cells/mL), and added to a 96 well plate. […] The cells were then washed once prior to analysis by flow cytometry (Beckman® CytoFlex).

[6] = target: T5, full-length mouse CTLA4 expressed on HEK293F cells (mouse, UniProt P09793 36-223); assay: as above
T5 construct: whole, on cells
Experimental: as §2

[7] = target: T4, full-length human CTLA4 expressed on …; assay: flow cytometry blocking: HEK293F cells with human CTLA4, 100 nM antibody, then 100 nM CD80-Fc-Bio (blocked ligand); PBSA panel: Mean 157692, 26.3%
Experimental: Antibodies were also tested for their ability to block binding of CTLA4 to its cognate ligands CD80 and CD86 by flow cytometry. The plasmid encoding full-length human CTLA4 was transiently expressed in HEK293F cells. Cells were washed with staining buffer (PBSA buffer including 1.76 mM KH₂PO₄, 10.14 mM Na₂HPO₄.12H₂O, 2.68 mM KCl, 136.89 mM NaCl and 1% BSA), and resuspended in staining buffer containing 100 nM test antibodies. […] Cells were washed once, and analyzed by CytoFlex flow cytometry.

[8] = target: T6, recombinant human CTLA4 fused with human Fc and His tag (human, UniProt P16410 36-162, limits assumed); assay: competition ELISA: plate-bound human CTLA4-Fc-His, biotinylated CD80 as blocked ligand
T6 construct: Coated in the CD80 ELISA, biotinylated and in solution in the CD86 ELISA; also called biotinylated human CTLA4 fused with human FC and His tag
T6 sequence (looked up): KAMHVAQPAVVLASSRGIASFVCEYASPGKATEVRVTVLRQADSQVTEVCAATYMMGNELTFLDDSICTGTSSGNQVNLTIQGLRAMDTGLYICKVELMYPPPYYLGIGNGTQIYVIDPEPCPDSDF
Experimental: Antibodies were then tested for their ability to block binding of CTLA4 to its cognate ligands CD80 and CD86 by ELISA. […] Plates were blocked with PBS supplemented with 2% (w/v) skim milk at 37° C. for 1 hour. […] Plates were washed four times, and 100 μL HRP-neutravidin (1:1000) was added to each well and incubated at 37° C. for 1 hour. Plates were washed as previously described, and 50 μL TMB substrate solution was added and incubated at room temperature for 5 minutes before the reaction was stopped by 50 μL sulfate acid (2M).

[9] = target: T3, recombinant human CTLA4-Fc; assay: BLI Octet, CTLA4-Fc on AHC sensor, Fab 10 ug/mL
Experimental: Proprietary phagemid libraries (see PCT application number PCT/CN2017/098333, incorporated herein by reference in its entirety; see also PCT application number PCT/CN2017/098299, incorporated herein by reference in its entirety) were employed to pan against human CTLA4 antigens. A total of 3-5 rounds of panning were conducted. After the final round of panning, single-colony supernatant ELISA was performed to identify the primary hits that specifically recognized human CTLA4 (see e.g., UniProt Accession Number P16410). The primary hits were defined as those whose ELISA signals were at least twice that of background. The hits were then sequenced, and the unique clones were expressed in E. coli and purified. Their affinities against human CTLA4 were measured by ForteBio Octet RED96 Systems. […] The acquired ForteBio data were processed with Data Acquisition software 7.1, and kinetic data were fitted to a 1:1 Langmuir binding model.

B1: TY21692 (antibody, V domains shown)
VH: EVQLVESGGGLVQPGGSLRLSCAASGYSITSGHYWSWIRQAPGKGLEWIGDISHSGSTYYSQSLKSRVTISRDNSKNTLYLQLNSLRAEDTAVYYCARGSRTGYFDYWGQGTLVTVSS
VL: DIQLTQSPSSLSASVGDRVTITCRASQSISSYLNWYQQKPGKAPKLLIYDASNLETGVPSRFSGSGSGTDFTLTISSLQPEDFATYYCQHHYGTPLTFGQGTKVEIKR
notes: human IgG1 (hIgG1) from Fab hit B16083
Kd [1]: 1.12 nM | Kd [2]: 3.95 nM | Kd [3]: 2.76 nM

B2: TY23286 (antibody, V domains shown)
VH: EVQLVESGGGLVQPGGSLRLSCAASGYSISSGYHWSWIRQAPGKGLEWLARIDWDDDKYYSTSLKSRLTISRDNSKNTLYLQLNSLRAEDTAVYYCARSYVYFDYWGQGTLVTVSS
VL: DIQLTQSPSSLSASVGDRVTITCRASQSVRGRFLAWYQQKPGKAPKLLIYDASNRATGIPSRFSGSGSGTDFTLTISSLQPEDFATYYCQQSSSWPPTFGQGTKVEIKR
EC50 [4]: 1500 nM

B3: TY23291 (antibody, V domains shown)
VH: EVQLVESGGGLVQPGGSLRLSCAASGYSISSGYHWSWIRQAPGKGLEWLARIDWDDDKYYSTSLKSRLTISRDNSKNTLYLQLNSLRAEDTAVYYCARSYVYFDYWGQGTLVTVSS
VL: DIQLTQSPSSLSASVGDRVTITCRASQSVRGRFLAWYQQKPGKAPKLLIYDASNRATGIPSRFSGSGSGTDFTLTISSLQPEDFATYYCQQSSSWPPTFGQGTKVEIKR
EC50 [4]: 3660 nM

B4: TY23289 (antibody, V domains shown)
VH: EVQLVESGGGLVQPGGSLRLSCAASGYSISSGYHWSWIRQAPGKGLEWLARIDWDDDKYYSTSLKSRLTISRDNSKNTLYLQLNSLRAEDTAVYYCARSYVYFDYWGQGTLVTVSS
VL: DIQLTQSPSSLSASVGDRVTITCRASQSVRGRFLAWYQQKPGKAPKLLIYDASNRATGIPSRFSGSGSGTDFTLTISSLQPEDFATYYCQQSSSWPPTFGQGTKVEIKR
EC50 [4]: 133 nM

B5: TY23280 (antibody, V domains shown)
VH: EVQLVESGGGLVQPGGSLRLSCAASGYSISSGYHWSWIRQAPGKGLEWLARIDWDDDKYYSTSLKSRLTISRDNSKNTLYLQLNSLRAEDTAVYYCARSYVYFDYWGQGTLVTVSS
VL: DIQLTQSPSSLSASVGDRVTITCRASQSVRGRFLAWYQQKPGKAPKLLIYDASNRATGIPSRFSGSGSGTDFTLTISSLQPEDFATYYCQQSSSWPPTFGQGTKVEIKR
EC50 [4]: 2950 nM

B6: TY21588 (antibody, V domains shown)
VH: EVQLVESGGGLVQPGGSLRLSCAASGYSISSGYHWDWIRQAPGKGLEWVSGISGYGGSTYYADSVKGRFTISRDNSKNTLYLQLNSLRAEDTAVYYCARHSYYGSGNFDYWGQGTLVTVSS
VL: DIQLTQSPSSLSASVGDRVTITCRASESVDFFGKSFLHWYQQKPGKAPKLLIYDASNLETGVPSRFSGSGSGTDFTLTISSLQPEDFATYYCQQSYSWPPTFGQGTKVEIKR
notes: human IgG1 (hIgG1) from Fab hit B15732
% of cells in upper right quadrant (Q2) [5]: 27% | % of cells in upper right quadrant (Q2) [6]: 32.1% | % of cells in upper right quadrant (CD80-positive) in the presence of the antibody [7]: 19.4% | Mean of the CD80 binding signal in the presence of the antibody [7]: 8180 | IC50 (read off the curve) [8]: ~1 nM

B7: B15717 (Fab, V domains shown)
VH: EVQLVESGGGLVQPGGSLRLSCAASGYTFSGYGIHWVRQAPGKGLEWIGEIYHSGSTYYSPSLKSRVTISRDNSKNTLYLQLNSLRAEDTAVYYCARRIDAFDIWGQGTLVTVSS
VL: DIQLTQSPSSLSASVGDRVTITCRASQSVDFDGFSFLHWYQQKPGKAPKLLIYDASSLESGVPSRFSGSGSGTDFTLTISSLQPEDFATYYCQQRDSWPYTFGQGTKVEIKR
notes: Fab from E. coli; also called Fab hit of TY21689
Kd [9]: 105 nM

B8: B15722 (Fab, V domains shown)
VH: EVQLVESGGGLVQPGGSLRLSCAASGFTFSDYGIHWVRQAPGKGLEWIGEIYHSGSTYYSPSLKSRVTISRDNSKNTLYLQLNSLRAEDTAVYYCARDVAPGSSGYYDGFDFWGQGTLVTVSS
VL: DIQLTQSPSSLSASVGDRVTITCRASQGIGSSLAWYQQKPGKAPKLLIYDASNRATGIPSRFSGSGSGTDFTLTISSLQPEDFATYYCQQYDQWPPWTFGQGTKVEIKR
notes: Fab from E. coli; also called Fab hit of TY21587
Kd [9]: 61.2 nM | koff [9]: 0.00434 s⁻¹ | kon [9]: 70900 M⁻¹ s⁻¹

B9: B15756 (Fab, V domains shown)
VH: EVQLVESGGGLVQPGGSLRLSCAASGFSLSTGGVAVSWIRQAPGKGLEWIGEIYHSGSTYYSPSLKSRVTISRDNSKNTLYLQLNSLRAEDTAVYYCARRIATATYFDYWGQGTLVTVSS
VL: DIQLTQSPSSLSASVGDRVTITCRASQTVFSRYLAWYQQKPGKAPKLLIYDASNRATGIPSRFSGSGSGTDFTLTISSLQPEDFATYYCQQSYYWPPWTFGQGTKVEIKR
notes: Fab from E. coli; also called Fab hit of TY21591
Kd [9]: 55.5 nM | koff [9]: 0.00663 s⁻¹ | kon [9]: 120000 M⁻¹ s⁻¹

B10: B15716 (Fab, V domains shown)
VH: EVQLVESGGGLVQPGGSLRLSCAASGYSITSGYYWAWIRQAPGKGLEWVSSISGSGSTTYYADSVKGRFTISRDNSKNTLYLQLNSLRAEDTAVYYCARDGFGYFDYWGQGTLVTVSS
VL: DIQLTQSPSSLSASVGDRVTITCSASSSVSYVYWYQQKPGKAPKLLIYDASSLESGVPSRFSGSGSGTDFTLTISSLQPEDFATYYCVQGLQTPWTFGQGTKVEIKR
notes: Fab from E. coli; also called Fab hit of TY21586
Kd [9]: 12.1 nM
